Assay: soluble fraction after stress (log2 fold change); higher = more stays soluble; pooled small domains, quantitative proteomics
Settings: stress: 50 degC
Procedure, shortened: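 The stress applied to every library was 50°C. These custom libraries of small protein domains were pooled and measured at high throughput with quantitative proteomics as the read-out. Aggregation propensity is expressed as the base-two logarithm of the fold change in how much of each protein remains soluble. The higher the value, the more of that protein stays in solution.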

Point of comparison: “HMSLIEQKSQIPLVQGGQRVDKVAAALFTDFSRAELTGWIQQGALTLDGAVVKPKYKVLGGEWLYLRASQS”, “soluble fraction (log2)” value -2.02. Against it:
- HMGVIGADIRALRVSRGWTLSDLAEALDRSVGWLSQVERDVSEPALADIRRIAGIFDLPVSFFFSD — lower, -2.86
- HMDTLHGRILEEFSRKIVDGTWPPGFSLPKETELADQYGVSRMTMNKVLTRLASDGFVIRRKRSGTVVAQP — higher, -1.21
- HMQEERLTFDTLLGISGIGPRLALAVLSRFTPGSLAAAVDAGDTKAFSAVPGVGNRTASRIILELKGKL — higher, -0.771
- HMDFFTAAPEEDEIGKRIDVYIAEYKEELSRSRVQKLIENGLVTVNGKAVKSNYKLRKGDILEVEIPDPE — higher, 0.0151
- HMAAMSLGERIGAHRKRMGISQEELGHRMGVSRQAVSKWETGRAVPDMENLLALARLFGVPVSELAD — higher, -0.177
- HMVDEAQSLERNVLLTVLSRIGRDSRVVLTHDIAQRDNLRVGRHDGVVAVVDRLKGHPLFAHVTL — higher, 0.012
- HMGSWDDFFNAIRLDNPNTLQALLQRGFDPNTVDQQGTPALMRALQEQSYRAAEVLADHPQI — higher, -0.459
- HMLQEFTLELATAVVQEFRDQPGALINALHKLQETFGYVDEAAMPVLARLFNLSRAEVHGVASFYHDFRRS — higher, -1.49
- HMVKLSATVKELLDFVIAKKTVTSSNVSKHFDISAQNASGRLKKLHATGLVLGQKEVAESGGLEFVYRS — higher, -0.183
- HMAPKVHLLKVPVDKIREIIGTGGKVIRQITEETGAKIDISDDGSVKVSSPDQSSIDAATTWITGIIAE — higher, 0.0652
- HMTPVIINESGGDQDTRIEGLNDNNLLYVDASTDRVGVGVATPTQKLDVNGDVAISGGSLYLSQ — higher, -0.00396
- HMEQQSIYLENRERMTINQVIDVDAFDEETLWANLKEGAVEISGSGLHIEKLDLAEGVLIVSGIIRAFAYV — higher, -0.647
- HMQFEIGDTVRVHVNIREGERERVQMFEGTVIAKRGSGVSETFTVRRVSYGVGVERVFPVNSPNV — higher, 0.105
- HMAPTVPEVVRLEEGAARSAIEAAGLSVGSVEFRASSDPAGTVLATRPIAGRKVRPSSAVDLVLSDGRTP — higher, 0.0905
- HMLNTLGADIRALRKARGLTLAELAQTLGRSVGWLSQVERDMSEPGINDLRDLARALDVSISSLFG — higher, -1.13
- HMAAESWTEKSRALAAAGLVVMGRDAQTKIEELTNLAPLIEAANASNTRLLTSQSIDELLSIVPTEENL — higher, 0.0724
- HMNAVYPNPFVSEIYIGENNRSVEIYNLNGGLVYGMSQPSSRIDVSGLAAGSYILIKKDSSGHISSHKIMK — higher, 0.0698
- HMPKITTIHIDPEKISKVIGPGGKTVKKIIEETGAKIDIEDTGKIFIAAVNTEAANKAIDMINGIVA — higher, 0.103
- HMEEKTMNLPPSAKLVYKILSYEGNLTQKEIINMTYLPERTVRHALELLLGKRLITRQAYLNDARQSVYG — higher, -1.66
- HMEIFYSARAWAKLNDLVATRTYLQHLGAIAGRIGRSEGLSPDRIPDGRDGAVNGWPLWVWDRAYAEVS — lower, -2.89
- HMELVEVGDLTGLTVEQAENVLKNSNISISIDKYDESDKYEKDQIISQNPQNKKVKKGTAIHVVLSNGP — higher, 0.0285
- HMVQAQGARIREARVQRGLSQAQLGEPRYSGSYISHIENGRRSPGTDVLAFIAARLGLEPGALDS — higher, -0.504
- HMVSLRQQVYDYLRSQMNQGELRPGSAINLGEMSSRFGISRTPLREALLQLETEGFVTIYPRKGIIVN — higher, -0.793
- HMNVWESVDLRQEQHEAKRRLILKQAALLFADRGFHETTIDQIAEALNVTKPTIYYYIESKEDLLYQVA — higher, -0.0821
- HMLQYSQEIEEAQKILQNLGLYKGEIDGINGVNTKSAIKEFQRKSGLIIDGILGPNTTSALSKGAESYITV — higher, 0.112
- HMKTEIGQAMRKLRKAKKMTQDTLAEKLGVAPANISRYEKGQQGIEVDKLPTLADALGVSVPEFFAIASG — higher, 0.0437
- HMKNESLMLPRDIDYSRVHGLSNEAIQKLQDALPQSLGQASRIEGITPATLSLLLLYLKKNNKRI — higher, -0.00929
- HMYEDNERNLYSVVINFLNEHKIKISREAINLVINRSSGDKHNLKQELNKILNYSFSNKNITYETIEKLSN — higher, -0.585
- HMDTAEQNWRLRGKLVTLGLNARQIRMALASHAPRYLEDNIAVVERDLAAGKVRNLPAYLLAALREDYRP — higher, -1.67
- HMENTFNENLRRIRKEKKITQEQLAEFVGVSPQAVSKWEMNSFPDASLLPKIAEKLEVSIDELFGLK — higher, 0.000882
- HMDKDTFGEFENVKLTEEEYNKLVEKLGENNTKLMIEELSTGIASKGYKYKSHYATILSWSRRRVTKLQER — higher, 0.0444
- HMDRDPAEAGYDDGYLSGNTDGMNNDERATYDESSQYPTPDERQSYAAAYRRGYAAGFADGRKQAV — higher, 0.134
- HMRQISDPTALASMVDKVIEDNPSAVADYRRGESKALGFLIGRVMQSSGGKANPKMIRGLLVKNLES — higher, -0.0922
- HMDRPEPLYIVNGKEVQTLEEAFELGRTLGSAKKGTQVRLRRLLPEEGVEKYGEKGRNGVFEFMVSA — higher, 0.217
- HMPEKKKYGDFVSMTEEEYGKLVSEYGQEAAKRMVEILNNYKGATGKPYKSDYLAILNWVVKRIKEE — higher, 0.0441
- HMEETAFEKLSPLQKLRALGKPLTMINMRDGSQIAGSVQRSDDKFLYLDTGDGIAKLPVEEILRRTPM — higher, 0.25
- HMERVIYLLNGREVPAAEIRAAEPEALTVDRFYSSENLPAEYRDRNPELVVAFTAEEPLRHY — higher, 0.358
- HMPKMISPAQIKAIGAKTNNIAKASGVEQAQVYQSAVAHLGINNKSTKELTSQEASKVIEYLSTL — higher, 0.0861
- HMKKPIYLTIANDIEKKIFNNDYPKNERLPSERNLAEEYGVTRMTIRNSIEYLVSKGLLEKRLGSGNYVKR — higher, -0.646
- HMDAHIGTLTPRERETLHHLAIGHSNKVIAKKLNLAESTVKAYVQSILRKLGLSSRVQAAVYAIQHDIR — higher, -0.205
- HMPRKLDDQLQEQIRYLKSNYPRMSAAGIFRQLQDNGSIKHGDVSESTINRYVNLLSIEMKTTT — higher, -0.223
- HMSQNTHTIPSREDILGIFRSVNAPLDPQSLGKTLQVHADSMDVLVRRLKAMERDGQLKSDASGVFSLAD — higher, 0.119
- HMTVRLSVSADGKFFWNESQVSEEELFPRLQAEAAKEPQPDLHIRGDKNVRYEFVAQAMAAAQRAGVRKI — higher, -0.404
- HMSAGPQGRTPREDELTVGTKVYVSRVGASGVVSSDVSRGKVVVQVGALRLTAAVSELLLLDG — higher, 0.151
- HMTEPKRIVDHWQPSDDVYDILRMSHIDLDFARSLLPEFIVYWKDSSQTHTSWNSKFLQHAKYHWAKRHQL — within 0.2 log units, -2.08
- HMEGSRASMDGQVPGKTSYLEWLARQPAQRQDQVLGAERGRLFRAGEIDLADMFTDKGEWISLERLKQLS — higher, 0.221
- HMALKSGVIAHAVDDAVMRGLNVFTVSDDGSIVSMKDNDIVLGKDGKSPYSVSEWLEELKPNVPHWFG — higher, -0.0243
- HMDELNFGNFEGTRIFVQRTARKKSIALSIRDGTIVILAPRHIPNQEIQELITTNTDWIRAKLSQHAETKR — higher, -1.75
- HMAPKRIVLRFGKDISDKPIIYYLVKDYDLVINILKANVNPNKEGTLVLELSGENYDKGIEFLISQGVTVQ — higher, -1.56
- HMNIMAQDWISSPMGPISFKSNQHGLVKIGWGEVPRENTEQPNLEFTRKWLVDYFEGKASPLPYF — higher, -0.329
- HMKIERKGDESYLSFVERATSALSDGLIDYQQWGRAVVGEDLYSEENTRRIAKFFAQFIQNLEND — within 0.2 log units, -1.9
- HMKIMSLSERHQKILELLKVNGIVSVNSLSRQLNVSSVTIRKDLGLLEEKKLLYRSHGGAIQID — lower, -3.08
- HMQDNLKKYMDKLSQRDAELIVYKYLWNMSEKEISEMFHIKQEQVHVYVGRAKKRLFKIIKKEME — higher, -0.025
- HMKEATTSPLDGIPGIGSKRKKALLSHFGSARSVARADIPDLMRVDGISRQVAETIYGWFHN — higher, -0.179
- HMSPSTNKTFSFSKENISIGQTVFIKKLNQNATVLTLPNKSNQLQVQFGVITMNVKLEDLALPTN — higher, -0.171
- HMSKPVVWIVGDSTVSAFTDNYYYPRYGWGTQIDKYLDGTFEVKNIALSGRSSTSYTADKEYGELIAG — higher, 0.0416
- HMDNLATRILKELNNNDGFLPLSDKSQPEAIYQAFGISKKSYKTAIGTLYKKRLITISENGIQLTD — higher, -0.688
- HMNTPAENFDKAVEKYKSTNSATEKDAAFKVIEDEWIKLSDEEKKERQDEYDSIFESEGDRV — higher, 0.126
- HMAEAETVKFVGNSLLLVSGAAKGERLSVYTVGGQHVLSADATKPVDVAALHSGVYVVRTTNGVITKIVK — higher, -0.749
- HMTDLEDDEKKVYRLIVESGEGIDFDTLSERSGFSATELPSILLFLMMKEMIDELPGKIYRYSE — higher, 0.0814
- HMDKQGGWLTMAEAAEKLGVTHHVIRRLIKEKILPAEQVMRHAPHQIRIVDLESDAVAEALRHR — higher, -0.215
- HMETEQVEMIRVVGMHVDEAKKALLDLGLSPEIKYEESSSYDAGTVLRASVQDGLMIDKGTNIVLTVAEA — higher, 0.121
- HMTGLSFEEKDLLGNALKLLDETERRIVILHATSGLKHREIAKQLDIPLPTVLSKYTRAIKKLKKHME — higher, -0.0942
- HMVEKRLFPQISDAGKRLDLFLAGALAISRTMVVKIIKDGGVLVNGKAAKASYRLAGDEELLVSYEEP — higher, 0.395
- HMGGLALAEREVVEWLSQRNLLPSPDVVARAAAHPDGLGWLERSLAVLEGPRLFLGLGDLVPEP — higher, -0.411
- HMGLRERLLNYIAYKGIDKATLERKSGLSNDAVNKMGDNTRVSTLDKISNAFPDINIAWLKTGVGEMILG — higher, -0.113
- HMASITLDQAKEIALTHAGQTADAVWFEKAEQDYDDGILVYELEFAAKGTEYEYEIDAQTGAIREYKWDD — higher, -0.0142
- HMQITQSSEPIDVSALRLGMFIHLEGGWLSHPFPRSSFKITSEDQLVTLRSLGISVLRWSPELSDPE — higher, -0.834
- HMLETADDAKRFLGAIISEKKAENLLRVYPDIIERIVAGKPVDLSLVKGIKQKTFDKLRQKVISHYSMY — higher, 0.119
- HMKTLSKEDIGFLSDEAVGEMRKAVANGEMLELRALIDQVGEKNPIVAEKLLTLVKQYDYENLNRVLE — higher, 0.0931
- HMTGKASEIAALLEQRIAAGDYPAGSKLPSERELAASFHVSRNTIRDAIALLAARKIVSTKWGAGTVVLG — higher, -0.139
- HMPVFYATNRQKTTIHNLKRKKGLDDDAYRATIYSFTHGRTDSSKYMYKYEAAELIQKWLDPE — higher, -1.7
- HMFNIIARQEIDEILYEYKIENSEDYKNRDPEELAEIYENIKTVQENHDLSDDDVEELLKSIFSDY — higher, -1.02
- HMPSTKDGIKEFLSSGAMKGIGRKTASAIVSRFGIDTLKIIEQEPQRLTEVSGIGKKTAQRIAEAFGKH — higher, -0.103
